Patent publication US20240035010, “COMPOSITIONS COMPRISING A VARIANT POLYPEPTIDE AND USES THEREOF” (Arbor Biotechnologies, Inc., published 2024)

Columns and labels:
[1] = target: T1, variant nuclease 7 substitutions D590G/E154G/E736G (P14R, D32R, I61R, E311R, D590G, E154G, E736G); assay: cell_activity; PAM 5'-TTTA-3'; conditions: tags: pcDNA3.1 expression
T1 chain: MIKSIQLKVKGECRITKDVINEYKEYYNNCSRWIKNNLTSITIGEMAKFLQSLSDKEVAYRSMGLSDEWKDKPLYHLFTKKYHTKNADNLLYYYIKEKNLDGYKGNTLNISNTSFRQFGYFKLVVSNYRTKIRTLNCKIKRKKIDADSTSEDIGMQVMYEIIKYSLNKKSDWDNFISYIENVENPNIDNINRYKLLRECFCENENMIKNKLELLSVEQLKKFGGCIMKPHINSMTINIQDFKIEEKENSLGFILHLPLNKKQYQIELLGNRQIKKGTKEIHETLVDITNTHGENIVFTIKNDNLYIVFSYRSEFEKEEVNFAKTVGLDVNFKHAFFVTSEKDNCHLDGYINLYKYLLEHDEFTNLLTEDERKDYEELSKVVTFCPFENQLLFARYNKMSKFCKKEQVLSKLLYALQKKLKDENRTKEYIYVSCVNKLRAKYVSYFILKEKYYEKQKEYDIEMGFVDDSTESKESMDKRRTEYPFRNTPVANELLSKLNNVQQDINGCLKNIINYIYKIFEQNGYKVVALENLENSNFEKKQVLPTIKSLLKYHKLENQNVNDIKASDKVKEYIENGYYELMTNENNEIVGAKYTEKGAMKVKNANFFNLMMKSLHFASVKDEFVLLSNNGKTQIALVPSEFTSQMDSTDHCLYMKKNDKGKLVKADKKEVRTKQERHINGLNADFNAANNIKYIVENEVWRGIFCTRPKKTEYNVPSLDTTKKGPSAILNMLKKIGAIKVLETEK
Procedure: (§1) Approximately 16 hours prior to transfection, 25,000 HEK293T cells in DMEM/10% FBS+Pen/Strep (D10 media) were plated into each well of a 96-well plate. On the day of transfection, the cells were 70-90% confluent. For each well to be transfected, a mixture of Lipofectamine 2000™ and Opti-MEM™ was prepared and incubated at room temperature for 5 minutes (Solution 1). After incubation, the Lipofectamine 2000™:Opti-MEM™ mixture was added to a separate mixture containing nuclease plasmid, RNA guide plasmid, and Opti-MEM™ (Solution 2). In the case of negative controls, the RNA guide plasmid was not included in Solution 2. Solutions 1 and 2 were mixed by pipetting up and down, then incubated at room temperature for 25 minutes. Following incubation, the Solution 1 and 2 mixture was added dropwise to each well of a 96-well plate containing the cells. Approximately 72 hours post transfection, cells were trypsinized by adding TrypLE™ to the center of each well and incubating at 37° C. for approximately 5 minutes. D10 media was then added to each well and mixed to resuspend cells. The resuspended cells were centrifuged at 500 g for 10 minutes to obtain a pellet, and the supernatant was discarded. The cell pellet was then resuspended in QuickExtract™ buffer (Lucigen®), and cells were incubated at 65° C. for 15 minutes, 68° C. for 15 minutes, and 98° C. for 10 minutes.
(§2) This Example describes assessment of indel activity at multiple target sites using the wild-type polypeptide of SEQ ID NO: 3 or variant polypeptides of Table 4. The variant polypeptides were cloned into a pcDNA3.1 backbone (Invitrogen), and the cells were transfected as described in Example 7.
(§3) The percentage of NGS reads containing indels (% indels) were calculated. For each variant polypeptide and target, % indels were averaged across two bioreplicates and two technical replicates. These values were then compared to % indels of the wild-type polypeptide of SEQ ID NO: 3.

[2] = target: T2, variant nuclease D590G combination (P14R, D32R, I61R, E311R, D590G); assay: cell_activity; PAM 5'-TTTA-3'; conditions: tags: pcDNA3.1 expression
T2 chain: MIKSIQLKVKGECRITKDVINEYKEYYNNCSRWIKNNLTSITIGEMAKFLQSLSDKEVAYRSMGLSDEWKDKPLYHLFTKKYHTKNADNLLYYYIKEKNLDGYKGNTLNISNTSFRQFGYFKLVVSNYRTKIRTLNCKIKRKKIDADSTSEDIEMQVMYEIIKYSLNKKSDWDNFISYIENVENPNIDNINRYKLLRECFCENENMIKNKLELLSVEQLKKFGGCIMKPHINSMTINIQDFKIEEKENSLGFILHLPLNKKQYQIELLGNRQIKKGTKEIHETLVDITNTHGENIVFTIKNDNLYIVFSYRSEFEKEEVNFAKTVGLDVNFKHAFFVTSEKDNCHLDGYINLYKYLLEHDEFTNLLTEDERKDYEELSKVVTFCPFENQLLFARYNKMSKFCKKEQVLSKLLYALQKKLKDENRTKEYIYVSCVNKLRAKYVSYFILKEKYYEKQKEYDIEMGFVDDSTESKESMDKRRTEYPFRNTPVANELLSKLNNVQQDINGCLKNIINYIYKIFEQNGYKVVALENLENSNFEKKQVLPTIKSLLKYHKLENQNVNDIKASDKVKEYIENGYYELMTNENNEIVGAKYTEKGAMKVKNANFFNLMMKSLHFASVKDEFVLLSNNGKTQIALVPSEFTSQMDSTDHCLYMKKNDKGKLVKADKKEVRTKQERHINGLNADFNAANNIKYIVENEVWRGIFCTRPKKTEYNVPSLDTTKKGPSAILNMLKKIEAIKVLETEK
Procedure: as §1, §2, §3

B1: VEGFA crRNA ; VEGFA target (ssRNA ; dsDNA)
RNA: CUUGUUGUAUAUGUCCUUUUAUAGGUAUUAAACAACUCCAGACCACCAAUGGGCAC
DNA 1: TCCAGACCACCAATGGGCAC
DNA 2: GTGCCCATTGGTGGTCTGGA
Q: Which indel activity [1] does the source give for B1 here?
A: 3.13 fold of WT

Q: And the indel activity [2]?
A: 2.68 fold of WT
